Source: the DeepSol protein solubility set

Assay: soluble on expression in E. coli; label from the status in PepcDB or PDB records
In the case of “DVNFILTFPTGYGKTTLSLEIVRMIDLKPTQNFSRLIHVVPTRSLAKDIQNSACERGLGFAVQYSFTPSHIKSPLFLAKFIITTYDSFLLNLYKASIGEPFSYHGHYDLPRFGIYTSLVHFDEFHLMNEGNSWTSLLGAVRHLSKVGVNMILSSATPSKSVEEELIRMMENRKVVRLAVVNEYGESVKNRNCV”, the “soluble on expression in E. coli” value is reported as “not soluble”.
For “EALLNDSALQSVPIVVPSRGSKLLGATLKTELTQEEVQQTLVDGFFPQVAITDHPVQRNRGALTQMGLPYAQDAGITRHIAAFLSKQAHAQSGGESAQAQDFNPFANMPGMPGSDAAQSADFIKPTAILFNGGVLKSKLLATRLEDTINKWLIEADAEMAKRLTGVDLDLAVASGAAYYGSVRRGQGVRIRGGIASAYYVGIESAMPAIPGMAPPMEALCVAPFGMEEGSSVDVPSQEFGLIIGQPVNFQFFGSTVRRDDLAGTHLDYWAPEELEELPEIQVTLPVSEGRREGEVVPVTLASRVTELGTLYLEAIAADNGQKWHVEFDVREDAKSDSNEEQ”, the “soluble on expression in E. coli” value was “not soluble”.
For “EASLTGAGATFPAPVYAKWADTYQKETGNKVNYQGIGSSGGVKQIIANTVDFGASDAPLSDEKLAQEGLFQFPTVIGGVVLAVNIPGLKSGELVLDGKTLGDIYLGKIKKWDDEAIAKLNPGLKLPSQNIAVVRRADGSGTSFVFTSYLAKVNEEWKNNVGTGSTVKWPIGLGGKGNDGIAAFVQRLPGAIGYVEYCYAKQNNLAYTKLISADGKPVSPTEENFANAAKGADWSKTFAQDLTNQKGEDAWPITSTTFILIHKDQKKPEQGTEVLKFFDWAYKTGAKQANDLDYASLPDSVVEQVRAAWKTNIKDSSGKPLY”, the “soluble on expression in E. coli” value was “soluble”.
For “EAYIGVLIDDLVTKGTNEPYRLLTSRAEYRLLLRHDNADLRLTEKGYEIGLIARERYERFCEKKAQIAAEKKRLESITVKPSKEVNALLEEVGSAPLKEAVQANVFLKRPEVTYEHVAKVIPAPEQELSADVAEQVEIQIKYEGYISKMLQQVERAKKMNDKKIPEDLDYDAINGLATEAKQKLSEVRPLSVGQASRVSGVNPSDISILLVYLE”, the “soluble on expression in E. coli” value was “not soluble”.
For “ECGHISVSAPIVHLGDPITASCIIKQNCSHLDPEPQILWRLGAELQPGGRQQRLSDGTQESIITLPHLNHTQAFLSCSLNWGNSLQILDQVELRAGYPPAIPHNLSCLMNLTTSSLICQWEPGPETHLPTSFTLKSFKSRGNCQTQGDSILDCVPKDGQSHCSIPRKHLLLYQNMGIWVQAENALGTSMSPQLCLDPMDVVKLEPPMLRTMDPSPEAAPPQAGCLQLSWEPWQPGLHINQKCELRHKPQRGEASWALVGPLPLEALQYELCGLLPATAYTLQIRCIRWPLPGHWSDWSPSLELRTTERAAAPR”, the “soluble on expression in E. coli” value was “soluble”.
For “EECQVRVGDLTVAKTRGQLTDAAPIGPVTVQALGCNARQVALKADTDNFEQGKFFLISDNNRDKLYVNIRPMDNSAWTTDNGVFYKNDVGSWGGTIGIYVDGQQTNTPPGNYTLTLTGGYWAKDNKQGFTPSGTTGTTKLTVT”, the “soluble on expression in E. coli” value was “soluble”.
For “EEFPFALGVQTLPQTCDEPKAHTSFQISLSVSYTGSRSASNMAIVDVKMVSGFIPLKPTVKMLERSNHVSRTEVSSNHVLIYLDKVSNQTLSLFFTVLQDVPVRDLKPAIVKVYDYYETDEFAIAEYNAPCSKDLGNA”, the “soluble on expression in E. coli” value was “soluble”.
In the case of “EEIDCNDKDLFKAVDAALKKYNSQNQSNNQFVLYRITEATKTVGSDTFYSFKYEIKEGDCPVQSGKTWQDCEYKDAAKAATGECTATVGKRSSTKFSVATQTCQITPAEGPVVTAQYDCLGCVHPISTQSPDLEPILRHGIQYFNNNTQHSSLFMLNEVKRAQRQVVAGLNFRMTYSIVQTNCSKENFLFLTPDCKSLWNGDTGECTDNAYIDIQLRIASFSQNCDIYPGKDFVQPPTKICVGCPRDIPTNSPELEETLTHTITKLNAENNATFYFKIDNVKKARVQVVAGKKYFIDFVARETTCSKESNEELTESCETKKLGQSLDCNAEVYVVPWEKKIYPTVNCQPLGMISLMKRPPGFSPFRSSRIGEIKEETTSHLRSCEYKGRPPKAGAEPASEREVS”, the “soluble on expression in E. coli” value is reported as “not soluble”.
For “EEKLVKIAGFGGQGVLSMGLTLAEAACRDQKYVSWYPSYGPEQRGGTSNCSVIISGHEIGSPVVYSPGVLIALNKPSLENFAKDVKTGGTIIYDENIGDFEIPNGVTAIKVPASKIATEMGVSRAANTVMLGVLSALGYTGLSESVFVGAIEQTFSKKPKLIPINVEILNAGISWAKE”, the “soluble on expression in E. coli” value was “not soluble”.
In the case of “EIILNASAMFNHSNAKLALSIDKKLRKVIVTPDMHRVHHSVMVKETHSNFGFFLSVWDRWFGTYRAQPALGHNDVVIGVPEIREASEQRLDKLLTQPFRYREGKGKNVD”, the “soluble on expression in E. coli” value is reported as “not soluble”.
For “EKIAHMAVSRGNGARLLVDGEATFAALFAALDAARHYVLIQFYIVRDDDLGLELRDRLIAAAQRGVKVRFLTDAIGSYGLSDNYIEDLRAAGIDIANPRKQRGPNTRFQVNYRNHRKTVVVDGQTGFIGGHNVGVEYLGQDPVMGRWRDTHVQITGPSVLQLQLVFAEDWHWARGEDLLDLLSWETRLDPQDADALIVATGPGDRTESGAMM”, the “soluble on expression in E. coli” value was “not soluble”.
With “EKMTRDEIEYMLTNSEETLEAEEIEMLQGIFSLDEMMAREVMVPRTDAFMIDINNDAQSNIEGILSQNFSRVPVFDDDKDRVVGVLHTKRLLEAGFKTGFDTIDLRKILQEPLFVPETIFVDDLLKALRNTQNQMAILLDEYGGVAGLVTLEDLLEEIVGEID” the “soluble on expression in E. coli” value was “soluble”.
For “ELGRLEDPAFTIKDAMIVATYPGATSKEVEEELTYPLEKEIRKLPYIDRITSTSSNGMSQIMVSMKMDYGPDELPQIWDEMRRKINDLQPTLPQGVQSLQIIDDFGDVYGVMLMLTGDDYDYVELKRYADHLRREIELVDGVGKVDIAGDQQEMLFVEISLDRLASLNLDMNVVSGLLNQQNNVVSAGEVMVNGESLVIRPSGTLNTVQALENLIIHGRDTGNLIRLKDVATITRGIQEKPGNMILFNGKKAINIGISFASGVNVVEVGERLNAELSSLESIKPAGLDMSYFYNQAQEVDDSVK”, the “soluble on expression in E. coli” value was “soluble”.
For “EMVKLQSVITGSMQTGRSRARIEQAVVALLTYVEEETDAFQILVRDMKAGQDHSYSTLLNDAVEQVSHILGQAFERSGLNPKNATLYAQALVGMVSMTAQWWLDRRKEPNAATKEQVAAHIVNLCWNGLAGMEANPQLSNIDSPPETLGAH”, the “soluble on expression in E. coli” value was “not soluble”.
In the case of “ENYLNVKKIENEKNLQISEMSLQYDYYMKQSNDMENIRKISHDIKNHLEALRGNVDYQQKQEYIDGIESKLDIYQSYYKTGNAFLNNLLHAKRLEALEKKIEFKVFADFTPFKRVKNEDLCVIVSNTIDNALRECQLMKADNPKIECLVQLKARKIKGFLSIICENSLRESQAEALRGNLVMETSKEDKKNHGFGVKNIKRVVREYGGEVSFNVVDDMFSVSILIPIEV”, the “soluble on expression in E. coli” value is reported as “not soluble”.
With “EPPADGGQIKGVGSGRCLDVPDASTSDGTQLQLWDCHSGTNQQWAATDAGELRVYGDKCLDAAGTSNGSKVQIYSCWGGDNQKWRLNSDGSVVGVQSGLCLDAVGNGTANGTLIQLYTCSNGSNQRWTRT” the “soluble on expression in E. coli” value was “soluble”.
With “EPRRPRAGPEELGKILQGVVVVLSGFQNPFRSELRDKALELGAKYRPDWTRDSTHLICAFANTPKYSQVLGLGGRIVRKEWVLDCHRMRRRLPSQRYLMAGPGSSSEEDEASHSGG” the “soluble on expression in E. coli” value was “soluble”.
With “EQELSYFAVFRRVYVQRDEVRQIASIVQRGERDHTFRVGSLIFHTIGQLLPQQMQAFHSPKALFPVGYEASRLYWSTRYANRRCRYLCSIEEKDGRPVFVIRIVEQGHEDLVLSDISPKGVWDKILEPVACVRKKSEMLQLFPAYLKGEDLFGLTVSAVARIAE” the “soluble on expression in E. coli” value was “not soluble”.
For “EQGREPSWGFTEKSRTRDIPETLVPLITVTPSTELYRITGWGALEGHKVFYHETYINPEVAPGFIEQLENHSFSAVWEKCYQKETVVKKLIFKPVRMPGDISKYLGGSAGMPAILIEKHRADQQGNIVQIDIEYWRFEAVDLIINL”, the “soluble on expression in E. coli” value was “not soluble”.
With “EQLPVLQTVPFAGSAEPVSLTRESVERSVGEANMQEQRKRVHAMLRDYELQLRINSDASQQDAHLTPDSE” the “soluble on expression in E. coli” value was “not soluble”.
For “ESKLEGKAAQDIKDEEPGDLGRPKPECEGYDPNALYCICRQPHNNRFMICCDRCEEWFHGDCVGISEARGRLLERNGEDYICPNCTILQVQDETHSETADQQEAKWRPGDADGTDCTSIGTIEQKSSEDQGIKGRIEKAANPSGKKKLKIFQPGPGPVPTQLPVLWQVLEIAVSRSISAFTLLHCISCKVIEAPGASKCIGPGCCHVAQPDSVYCSNDCILKHAAATMKFLSSGKEQKPKPKEKMKMKPEKPSLPKCGAQAGIKISSVHKRPAPEKKETTVKKAVVVPARSEALGKEAACESSTPSWASDHNYNAVKPEKTAAPSPSLLYKSTKEDRRSEEKAAATAASKKTAPPGSTVGKQPAPRNLVPKKSSFANVAAATPAIKKPPSGFKGTIPKRPWLSATPSSGASAARQAGPAPAAATAASKKFPGSAALVGAVRKPVVPSVPMASPAPGRLGAMSAAPSQPNSQIRQNIRRSLKEILWKRVNDSDDLIMTENEVGKIALHIEKEMFNLFQVTDNRYKSKYRSIMFNLKDPKNQGLFHRVLREEISLAKLVRLKPEELVSKELSTWKERPARSVMESRTKLHNESKKTAPRQEAIPDLEDSPPVSDSEEQQESARAVPEKSTAPLLDVFSSMLKDTTSQHRAHLFDLNCKICTGQVPSAEDEPAPKKQKLSASVKKEDLKSKHDSSAPDPAPDSADEVMPEAVPEVASEPGLESASHPNVDRTYFPGPPGDGHPEPSPLEDLSPCPASCGSGVVTTVTVSGRDPRTAPSSSCTAVASAASRPDSTHMVEARQDVPKPVLTSVMVPKSILAKPSSSPDPRYLSVPPSPNISTSESRSPPEGDTTLFLSRLSTIWKGFINMQSVAKFVTKAYPVSGCFDYLSEDLPDTIHIGGRIAPKTVWDYVGKLKSSVSKELCLIRFHPATEEEEVAYISLYSYFSSRGRFGVVANNNRHVKDLYLIPLSAQDPVPSKLLPFEGPGKRRLSGWR”, the “soluble on expression in E. coli” value was “soluble”.
For “ESKSPIIQNVLSYITEHFSEGMSLKTLGNDFHINAVYLGQLFQKEMGEHFTDYLNRYRVNYAKEELLQTKDNLTIIAGKSGYTDMAYFYRQFKKHTGETPNRYRKIHQ”, the “soluble on expression in E. coli” value was “soluble”.
In the case of “ESLSGEDAFPYRHQIVEIPPIELIVIEHRLHQLTCGQCGTNTRAKLPDDVNPSEYGVRVVAMVALLSGVYRNSQRMVQSALADLFGISMSLGTVNTLRIEANNAVANCVDEAKLYVQHSNVVGADETGFNQGNIDGGNPKQRQAWLWVGVTPLVTFFEVALTRCTSAVKNLLGENFAGILTSDRHGAYNWVDI”, the “soluble on expression in E. coli” value is reported as “not soluble”.
In the case of “ESNDSGIVVYNAQHENLVKSWVDGFTKDTGIKVTLRNGGDSELGNQLVQEGSASPADVFLTENSPAMVLVDNAKLFAPLDAVTQAQVAQEYRPEHGRWTGIAARSTVFVYNPEKISEAELPKSIMDLAKPEWKGRWAASPSGADFQAIVSAMLELKGEKATLEWLKAMKTNFTAYKGNSTVMKAVNAGQIDGGVIYHYYRFVDQAKTGENSGKTQLHYFKHQDPGAFVSISGGGVLASSKHPKEAQEFVKWITGKSGQDILRTNNAFEYAVGVDAASNPKLVPLKDLDAPKVEPSKLNSKKVVELMTEAGLL”, the “soluble on expression in E. coli” value is reported as “soluble”.
In the case of “ESRSQISRRNQDMLLSVLDLEKVSVNDIMVPRNEIVGIDINDDWKSIVRQLTHSPHGRIVLYRDSLDDAISMLRVREAYRLMTEKKEFTKEIMLRAADEIYFVPEGTPLSTQLVKFQRNKKKVGLVVDEYGDIQGLVTVEDILEEIVGDFTTSMSPTLAEEVTPLNDGTVIIDGSANVREINKAFNWHLPEDEARTVNGII”, the “soluble on expression in E. coli” value is reported as “soluble”.
For “ESVLTQPPSVSGAPGQRVTISCTGSSSNIGAGYDVHWYQQLPGTAPKLLISGNSNRPSGVPDRFSGSKSGTSASLAITGLQAEDEADYYCQSYDSSLSGSVFGGGTKLTVLGQPKAAPSVTLFPPSSEELQANKATLVCLISDFYPGAVTVAWKADSSPVKAGVETTTPSKQSNNKYAASSYLSLTPEQWKSHRSYSCQVTHEGSTVEKTVAPTECS”, the “soluble on expression in E. coli” value was “soluble”.
